According to patent US20130195863A1, “Methods and Pharmaceutical Compositions for the Treatment of Bone Density Related Diseases” (priority 2010, published 2013):

Columns and labels:
[1] = test system: breast cancer cells expressing ROBO1 (SC-transfected MDA-MB-231/B02); assay: Effect of Slit2 on cell migration (96-microwell plates); type: cell-based, human; details: conditioned medium from Slit2-expressing HEK cells; effect seen in SC-transfected cells as opposed to Sh-transfected (ROBO1-silenced) cells
Protocol: The effects of Slit2, […] (RANKL) and osteoprotegerin (OPG) on cell migration were studied using 96-microwell plates (Millipore). Experiments were carried out essentially as described above with minor modifications. Briefly, inserts were loaded with 75 μl of a cell suspension (2×10^5 cells/ml) and 150 μl of chemoattractant was placed in the lower chamber. The chemoattractant consisted of culture medium containing 0.5% (v/v) fetal calf serum with or without RANKL, OPG or the conditioned medium from Slit2-expressing HEK cells. Remaining of the experiments was as described above.

ROBO1 mRNA = assay: Quantitative real-time PCR of ROBO1 transcript after ROBO1 silencing; type: cell-based, human; details: clones Sh1.32 and Sh1.33 vs scrambled-transfected SC2.1 and SC2.4 cells
Description: (§1) The small hairpins RNA (siRNA) against human Robo1 were designed with the Promega Si Designer tool. The oligos used were as follows: ShRNA-RB1 forward, 5′-ACCgCAgTACTAAgggAA-CAATAAgTTCTCTATTgTTCCCTTAgTACTgCTTTTTC-3′(SEQ ID NO:1); ShRNA-RB1 reverse, 5′-TgCAgAAAAAgCAg-TACTAAgggAACAATAgAgAACTTATTgTTCCCTT-AgTACTg-3′ (SEQ ID NO:2).
(§2) The shRNAs and corresponding scrambles duplex were synthesized with the psiSTRIKE puromycin kit (Promega) under U6 promoter. MDA-MB-231/B02-Frt11 cells were transfected with the siRNA and scrambles duplex with Transfast Transfection Reagent (Promega), according to the manufacturer's instructions. Selection of the clones was obtained after growing the cells for two weeks in the presence of puromycin (2 μg/ml).
(§3) RNA isolation, reverse transcriptase-polymerase chain reaction (RT-PCR), and quantitative real-time PCR (qPCR): RNA was extracted from cells using the Nucleospin RNA II kit (Macherey-Nagel) and cDNA produced from 2 μg total RNA using the MMLV polymerase Promega. qPCR was performed using SYBR Green qPCR Kit (Finnzymes). Probes were purchased from Invitrogen.

ROBO4 mRNA = ROBO4 mRNA expression after ROBO1 silencing; type: cell-based, human; details: ROBO1 silencing in MDA-MB-231/B02 cells
Description: as §1, §2, §3

ROBO1 = assay: Confocal microscopy of ROBO1 immunostaining; type: cell-based, human; details: ShRNA-transfected vs scrambled-transfected cells
Protocol: Confocal microscopy: Subconfluent cell layers were fixed in 4% (w/v) formaldehyde for 30 min, washed three times with PBS and permeabilized for 5 min in PBS containing 0.2% (v/v) Triton-X-100. Permeabilized cells were then incubated with rabbit anti-Robo1 antibody ab7279 (17 μg/ml; AbCam) for 1 h, washed in PBS then incubated with a secondary, FITC-conjugated, anti-rabbit antibody (Sigma). Actin was labeled with phalloidin (Invitrogen) and nuclei were labeled with DAPI. Slides were viewed using confocal microscope Leica TCS-SP2.

[2] = test system: MDA-MB-231/B02 human breast cancer cells; assay: Cell invasion assay (Matrigel-coated inserts); type: cell-based; details: Sh1.32 and Sh1.33 cells vs scrambled-transfected and parental cells
Protocol: Cell migration and invasion assays: Cell migration and invasion assays were performed in 24-well cell culture chambers with 8-μm diameter pore-size inserts (Becton Dickinson), as previously described (Zhang et al., Cancer Res., 67:5821-5830, 2007). Inserts were coated with 100-μl basement membrane Matrigel (3 μg/ml; Becton Dickinson) for 90 min at 37° C. in order to perform cell invasion experiments. Cancer cells (1.5×10^5 cells/ml) were re-suspended in DMEM culture medium containing 0.1% (w/v) bovine serum albumin and 300-μl of this cell suspension were loaded into each insert (upper chamber). The chemoattractant [10% (v/v) fetal calf serum] was placed in the lower chamber (750 μl/well). The plates were incubated for 6 h at 37° C. in a 5% CO2 incubator. After incubation, the inserts were collected carefully, the nonmigrating cells were removed and the migrating cells on the under surface of the inserts were fixed and stained with crystal violet. The membranes were mounted on glass slides and cells were counted under microscope.

[3] = test system: MDA-MB-231/B02 human breast cancer cells; assay: Scratch wound assay; type: cell-based; details: Sh-transfected vs parental and scrambled-transfected cells; statistically significant
Protocol: Scratch wound assay: Cells were seeded at a concentration of 1×10^5 cells into 24-well plates and cultured for 24 hours at 37° C. in culture medium containing 10% (v/v) fetal calf serum. After incubation, the culture medium was removed and cells were further cultured in medium containing or not containing 5% (v/v) fetal calf serum, at which time a wound scratch was made on the cell monolayer by using a 20-μl micropipette tip. Cells were fixed, stained with crystal violet, and photographed 24 h later. Alternatively, cell migration was monitored by time-lapse videomicroscopy. Microscopic images were recorded, in a time lapse mode, with a CCD camera attached to a phase contrast microscope (Zeiss Axiovert 200M) and the behaviour of migrating cells was tracked over 24 hours using ImageJ software. Analysis of the images was performed using MetaMorph software.

B1: Slit2: natural ligand of ROBO1; tested as conditioned medium from HEK cells stably expressing human Slit-2 (protein)
chain: QCSCSGSTVDCHGLALRSVPRNIPRNTERLDLNGNNITRITKTDFAGLRHLRVLQLMENKISTIERGAFQDLKELERLRLNRNHLQLFPELLFLGTAKLYRLDLSENQIQAIPRKAFRGAVDIKNLQLDYNQISCIEDGAFRALRDLEVLTLNNNNITRLSVASFNHMPKLRTFRLHSNNLYCDCHLAWLSDWLRQRPRVGLYTQCMGPSHLRGHNVAEVQKREFVCSGHQSFMAPSCSVLHCPAACTCSNNIVDCRGKGLTEIPTNLPETITEIRLEQNTIKVIPPGAFSPYKKLRRIDLSNNQISELAPDAFQGLRSLNSLVLYGNKITELPKSLFEGLFSLQLLLLNANKINCLRVDAFQDLHNLNLLSLYDNKLQTIAKGTFSPLRAIQTMHLAQNPFICDCHLKWLADYLHTNPIETSGARCTSPRRLANKRIGQIKSKKFRCSAKEQYFIPGTEDYRSKLSGDCFADLACPEKCRCEGTTVDCSNQKLNKIPEHIPQYTAELRLNNNEFTVLEATGIFKKLPQLRKINFSNNKITDIEEGAFEGASGVNEILLTSNRLENVQHKMFKGLESLKTLMLRSNRITCVGNDSFIGLSSVRLLSLYDNQITTVAPGAFDTLHSLSTLNLLANPFNCNCYLAWLGEWLRKKRIVTGNPRCQKPYFLKEIPIQDVAIQDFTCDDGNDDNSCSPLSRCPTECTCLDTVVRCSNKGLKVLPKGIPRDVTELYLDGNQFTLVPKELSNYKHLTLIDLSNNRISTLSNQSFSNMTQLLTLILSYNRLRCIPPRTFDGLKSLRLLSLHGNDISVVPEGAFNDLSALSHLAIGANPLYCDCNMQWLSDWVKSEYKEPGIARCAGPGEMADKLLLTTPSKKFTCQGPVDVNILAKCNPCLSNPCKNDGTCNSDPVDFYRCTCPYGFKGQDCDVPIHACISNPCKHGGTCHLKEGEEDGFWCICADGFEGENCEVNVDDCEDNDCENNSTCVDGINNYTCLCPPEYTGELCEEKLDFCAQDLNPCQHDSKCILTPKGFKCDCTPGYVGEHCDIDFDDCQDNKCKNGAHCTDAVNGYTCICPEGYSGLFCEFSPPMVLPRTSPCDNFDCQNGAQCIVRINEPICQCLPGYQGEKCEKLVSVNFINKESYLQIPSAKVRPQTNITLQIATDEDSGILLYKGDKDHIAVELYRGRVRASYDTGSHPASAIYSVETINDGNFHIVELLALDQSLSLSVDGGNPKIITNLSKQSTLNFDSPLYVGGMPGKSNVASLRQAPGQNGTSFHGCIRNLYINSELQDFQKVPMQTGILPGCEPCHKKVCAHGTCQPSSQAGFTCECQEGWMGPLCDQRTNDPCLGNKCVHGTCLPINAFSYSCKCLEGHGGVLCDEEEDLFNPCQAIKCKHGKCRLSGLGQPYCECSSGYTGDSCDREISCRGERIRDYYQKQQGYAACQTTKKVSRLECRGGCAGGQCCGPLRSKRRKYSFECTDGSSFVDEVEKVVKCGCTRCVS
migration of SC-transfected cells induced by FCS [1]: inhibited the migration

B2: ShRNA-RB1: small hairpin RNA against human Robo1, SEQ ID NO:1 forward and SEQ ID NO:2 reverse, under U6 promoter (nucleic acid)
sense: ACCGCAGTACTAAGGGAACAATAAGTTCTCTATTGTTCCCTTAGTACTGCTTTTTC
antisense: TGCAGAAAAAGCAGTACTAAGGGAACAATAGAGAACTTATTGTTCCCTTAGTACTG
modifications: target site or template, no part of the molecule
ROBO1 transcript down regulation (ROBO1 mRNA): 90%
effect on ROBO4 mRNA expression levels (ROBO4 mRNA): did not affect
ROBO1 immunostaining at the plasma membrane (ROBO1): totally disappeared
invasion [2]: substantial gain in invasion
wound closure [3]: faster wound closure
